According to patent US20220098635A1:
Like-named read-outs stand apart in the source and are kept apart here.

How the values were obtained:
[1] = target: RGD peptide (cyclo(Arg-Gly-Asp-D-Phe-Cys)); assay: method not stated
[2] = target: RGD peptide (cyclo(Arg-Gly-Asp-D-Phe-Cys)); assay: cell-based or functional assay
[3] = target: RGD peptide (cyclo(Arg-Gly-Asp-D-Phe-Cys))
[4] = target: RGD peptide (cyclo(Arg-Gly-Asp-D-Phe-Cys)); remark: listed apart in the source
[5] = target: RGD peptide (cyclo(Arg-Gly-Asp-D-Phe-Cys)); assay: STM junction, bare probe (NA), RGD peptide on substrate only, gap Z0 + 2 nm
[6] = target: RGD peptide (cyclo(Arg-Gly-Asp-D-Phe-Cys)); remark: listed apart in the source

αVβ3 Integrin (receptor), sequence (P06756 31-992): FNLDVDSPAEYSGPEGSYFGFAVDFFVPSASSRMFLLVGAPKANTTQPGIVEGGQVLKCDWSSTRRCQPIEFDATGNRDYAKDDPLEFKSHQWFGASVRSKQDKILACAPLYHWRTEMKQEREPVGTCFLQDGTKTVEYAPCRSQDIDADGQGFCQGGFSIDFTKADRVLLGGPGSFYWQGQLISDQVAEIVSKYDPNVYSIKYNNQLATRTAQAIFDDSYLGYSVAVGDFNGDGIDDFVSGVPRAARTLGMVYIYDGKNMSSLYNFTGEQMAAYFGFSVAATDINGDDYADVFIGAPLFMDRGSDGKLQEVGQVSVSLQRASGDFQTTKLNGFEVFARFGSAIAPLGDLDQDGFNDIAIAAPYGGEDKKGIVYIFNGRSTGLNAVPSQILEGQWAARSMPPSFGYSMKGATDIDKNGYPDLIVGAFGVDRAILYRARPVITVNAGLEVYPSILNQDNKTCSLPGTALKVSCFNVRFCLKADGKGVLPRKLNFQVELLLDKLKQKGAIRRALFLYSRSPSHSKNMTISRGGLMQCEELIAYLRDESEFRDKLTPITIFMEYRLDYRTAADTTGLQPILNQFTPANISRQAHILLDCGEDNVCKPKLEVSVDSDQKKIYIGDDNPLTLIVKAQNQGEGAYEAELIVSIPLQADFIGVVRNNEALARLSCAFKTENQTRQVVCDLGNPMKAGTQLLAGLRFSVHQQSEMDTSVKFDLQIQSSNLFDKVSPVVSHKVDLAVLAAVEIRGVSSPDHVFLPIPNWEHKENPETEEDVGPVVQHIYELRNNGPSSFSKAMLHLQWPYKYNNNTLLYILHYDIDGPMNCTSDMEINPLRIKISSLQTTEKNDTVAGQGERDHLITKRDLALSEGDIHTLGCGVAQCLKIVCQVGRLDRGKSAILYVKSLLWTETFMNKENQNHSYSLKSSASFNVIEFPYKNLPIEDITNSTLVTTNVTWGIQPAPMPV
αVβ3 Integrin (receptor), sequence (P05106 27-718, further chain): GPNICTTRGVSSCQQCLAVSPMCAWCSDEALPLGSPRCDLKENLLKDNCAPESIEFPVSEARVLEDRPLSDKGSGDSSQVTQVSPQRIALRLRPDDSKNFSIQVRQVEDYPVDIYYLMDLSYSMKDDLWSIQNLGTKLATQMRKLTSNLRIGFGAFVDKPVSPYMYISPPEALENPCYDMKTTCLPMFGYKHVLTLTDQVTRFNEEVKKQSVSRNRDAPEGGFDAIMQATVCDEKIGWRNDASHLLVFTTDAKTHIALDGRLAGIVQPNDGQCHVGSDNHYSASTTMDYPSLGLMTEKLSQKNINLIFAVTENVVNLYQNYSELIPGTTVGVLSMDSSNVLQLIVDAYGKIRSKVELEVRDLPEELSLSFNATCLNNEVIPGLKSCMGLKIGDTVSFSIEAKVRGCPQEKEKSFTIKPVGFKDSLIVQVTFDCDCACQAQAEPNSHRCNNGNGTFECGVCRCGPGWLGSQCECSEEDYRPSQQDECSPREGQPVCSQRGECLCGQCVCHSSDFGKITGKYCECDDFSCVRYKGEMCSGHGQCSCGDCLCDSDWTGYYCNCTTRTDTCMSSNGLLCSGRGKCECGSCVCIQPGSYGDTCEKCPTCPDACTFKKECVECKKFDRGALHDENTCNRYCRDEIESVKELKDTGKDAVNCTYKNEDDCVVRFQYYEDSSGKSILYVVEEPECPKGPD

Substance αVβ3 Integrin (receptor) has a Kd [1] of 10 nM, a Peak Conductance (nS), Binding Mode NS-S [2] of 0.38 nS and a Frequency with which sweeps yielded an IV curve [3] of 23.7%. It also gave a Frequency with which sweeps yielded an IV curve [4] of 10.5%, a Frequency with which sweeps yielded an IV curve [5] of 0% and a Frequency with which sweeps yielded an IV curve [6] of 35.9%.
